Read-outs that look alike come from different tables or passages of the source.
Legend:
[1] = target: CXCR1 extracellular loop peptide two linked extracellular loops (Homo sapiens) (UniProt P25024); settings: cited from earlier work
ND-CXCR1(1–38) [2] = target: ND-CXCR1(1–38) (UniProt P25024); assay: ITC
ND-CXCR1(1–38) [3] = target: ND-CXCR1(1–38) (UniProt P25024); assay: ITC; remark: listed apart in the source
[4] = target: 1TM-CXCR1(1–72) reconstituted in nanodiscs (UniProt P25024); assay: ITC
Chain of 1TM-CXCR1(1–72) reconstituted in nanodiscs (P25024 1-72 C30S): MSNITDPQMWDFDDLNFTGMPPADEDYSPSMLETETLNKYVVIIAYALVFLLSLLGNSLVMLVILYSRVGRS

Chain of ND-CXCR1(1–38) (P25024 1-38 C30S): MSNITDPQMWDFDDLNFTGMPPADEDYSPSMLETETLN
Chain of CXCR1 extracellular loop peptide two linked extracellular loops (Homo sapiens) (P25024 whole entry): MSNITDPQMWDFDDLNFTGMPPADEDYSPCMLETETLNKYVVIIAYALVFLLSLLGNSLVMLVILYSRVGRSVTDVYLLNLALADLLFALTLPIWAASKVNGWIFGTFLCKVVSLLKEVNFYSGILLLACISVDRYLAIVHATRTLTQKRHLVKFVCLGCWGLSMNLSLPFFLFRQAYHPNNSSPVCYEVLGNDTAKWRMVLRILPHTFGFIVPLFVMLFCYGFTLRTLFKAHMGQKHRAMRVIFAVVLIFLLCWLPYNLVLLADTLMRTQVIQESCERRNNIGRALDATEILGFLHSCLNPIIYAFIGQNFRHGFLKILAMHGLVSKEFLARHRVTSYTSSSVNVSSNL
Chain of IL-8 (P10145 28-99): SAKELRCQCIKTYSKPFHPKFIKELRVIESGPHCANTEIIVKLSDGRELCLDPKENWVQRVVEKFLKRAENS

Kd (ND-CXCR1(1–38) [2]) [µM] | Kd (ND-CXCR1(1–38) [3]) [µM] | dH (ND-CXCR1(1–38) [3]) [kcal/mol] | Kd [4] [µM] | dH [4] [kcal/mol] | Substance | Kd [1] [nM]
 |  |  |  |  | IL-8 (from UniProt P10145) | 500
3.2 | 3.5 | -3.2 | 12.5 | -3.1 | monomeric Interleukin-8 IL-8(1–66) (ligand) | 

— article PMC5869024
